The results in this text go back to the DeepSol protein solubility set.

A short description of this series: soluble on expression in E. coli; label from the status in PepcDB or PDB records.
Regarding “MGSDKIHHHHHHMTLMKPADVSQRQSTSVLHSSSHSPSQNHLLAALPQVELESFSDHLELVPMPLGEFLYEPGSGLEYVYFPTTCIVSLHYVLSSGATAETAGVGNEGVVGVSLFMGGNTTASSAVVQTAGYGYRLNKKILMREFDRSGLLQRVLLRYTQALMTQMSQTAVCNRHHSLEQQFCRWLLLTLDRMPTNELVMTHELVASMLGVYREGISLAAGKLQQAGVISYRRGHISVLDRAKLELKSCECYQVVKTELDRLLSDGLLADAKFIKTKTDTQTSKTQ”, the “soluble on expression in E. coli” value is “not soluble”.

Consider “MAHHHHHHMHRFRVCALGAAFCVARRWRSGGGPGDRRVRTDWYRCYPSLMEEKDRDMYHCYYPYLFDHGDKMSLYPKIPDNPREWQVEQLQTTYDAIREDKYDAFVRLRAKFPELYQDTYAWDNPPPFGEFNMFYSVRFGMIGVKAFTCKDYDDLGNQFDCTAFWFPDNQIVKHSTRNGDVGTDKVYVGAMNVPVEFHKPHVAAFYKAAGVPVKHVSAGFPVTPDAYAPVGTKLDVRHFKPGQEVTITFQNTDYGYQGVMFRHGFDGGYVWLGDSKWQRRPGCMGAEGQKRIYPGHRMAGQTGASAETYDGVPVWRIDYKNSLIYLPTLIDADVGTYVKFRDTINTKGYTLWNEHRGTPPFPTFIPSEEEDLSKLATDEGQLTSPPLYMYFRDEFAAAQLVTQADVEDAKSAKPATAAPKKKVYDLKKYTEARKKYRKNLQKARKYKLMGVRTRAHEKQQEARRAKILKYKRVKT”, for which the “soluble on expression in E. coli” value was “not soluble”.

As for “MSANSKDRNQSNQDAKRQQQNFPKKISEGEADLYLDQYNFTTTAAIVSSVDRKIFVLLRDGRMLFGVLRTFDQYANLILQDCVERIYFSEENKYAEEDRGIFMIRGENVVMLGEVDIDKEDQPLEAMERIPFKEAWLTKQKNDEKRFKEETHKGKKMARHGIVYDFHKSDMY”, the “soluble on expression in E. coli” value is given as “not soluble”.

Consider “SNAGMTGFVINTRRAPFDDWRLREALLLAFNFEFINDTVTGGVMPRITSYFSGTDLAYRPGTASGREAELLAPFAADLPPGTLEGYALPQGDGTARNRTNLRRAAQFLEQAGFRIEQGQLLGPDGAPLALRFLLRQGDSDMQTVLEIYTRALERLGIAAQIEKVDNAQYTARVAELDFDLTPFRRDLSLSPGNEQRLYWGSHSAGQPGTRNLMGAASPAIDAMIDRMLAATTEDELTAATRALDRVLTAGRYVIPIWR”, for which the “soluble on expression in E. coli” value is on record as “soluble”.

Consider “MAHHHHHHMQGTGSAKSFLEKLKSGRTTSAAIDNNAPPDGDGVILRRVERQYASEPLSALGLKLTEDAEVLSTEVGSPAAKSNIPLHYMIIAVNNQFVGSRADFEDIAAQLLTLVIKLQSTAAMSELLANILNEEEKNFNENGDSCIDVNELLRTTPRYGFLSAEHPMFLRWNQRLQTQREARQLIRQATREAEEQQAKEALEALRRVADAEDEIQQQQAQQERQHQQMLRQGPETVNPSAPEAGARPGGEVLLKQVQDESTFGESNVNNEGFEESPEEASPEELLKLIGAEPVETEVVQHVDADEPTEVRFFINPTEEYALSNGTRVTISVKKRSGPIPKPPPGKPPKGIEKADDKQAQ”, for which the “soluble on expression in E. coli” value is reported as “not soluble”. Consider “SDLDLLDLNPRIIAAIKKAKLKSVKEVLHFSGPDLKRLTNLSSPEVWHLLRTASLHLRGSSILTALQLHQQKERFPTQHQRLSLGCPVLDALLRGGLPLDGITELAGRSSAGKTQLALQLCLAVQFPRQHGGLEAGAVYICTEDAFPHKRLQQLMAQQPRLRTDVPGELLQKLRFGSQIFIEHVADVDTLLECVNKKVPVLLSRGMARLVVIDSVAAPFRCEFDSQASAPRARHLQSLGATLRELSSAFQSPVLCINQVTEAMEEQGAAHGPLGFWDERVSPALGITWANQLLVRLLADRLREEEAALGCPARTLRVLSAPHLPPSSCSYTISAEGVRGTPGTQSH”, for which the “soluble on expression in E. coli” value is on record as “soluble”.

As to “MTADRPALRTGDRDTRLSFGSNLSSFTDYLRGHAPELLPENRIGHRSHSTRGGDGMESGDLAPHGTTIVALTYKGGVLLAGDRRATQGNLIASRDVEAVYVTDEYSAAGIAGTAGIAIELVRLFAVELEHYEKIEGVPLTFDGKANRLASMVRGNLGAAMQGLAVVPLLVGYDLDADDESRAGRIVSYDVVGGRYEERAGYHAVGSGSLFAKSALKKIYSPDSDEETALRAAIESLYDAADDDSATGGPDLTRGIYPTAVTITQAGAVHVSEETTSELARRIVAERTEQGGSAR”, the “soluble on expression in E. coli” value is recorded as “soluble”.

Consider “MGSDKIHHHHHHMPNKDIDDLVRFLKDKQISTITKKYHSYLTFHGLKAANVFILKEGIIKTSVILQDGREFNISYINQPDVISLLHDEALQYDEQPFNVRIESETATFYQVNRVEFWQYVNAKSELQNYVKQYYRHRLSETFARIQRLTMNGKMGALANFLHDIAEKFGRDLPDEAGVLIDFNVTNEDIAGFCGIANQTSVSRMMRKLKLEDIIDFGMSNDGKRRIIITNMKKLDDYIAY”, for which the “soluble on expression in E. coli” value is on record as “not soluble”. For the sequence “MRNKVLIVLAVIAGALILKSCGEPYSGAKETVGEFMEEIAEGEGRDAIKYLYPAYRDELAKNFKLPVQFTEMKPSEVLACVLSTMGRNIDEVEIKKAIAVNPNTANVVVKVEDKEGIEKFFSFTVVKEGDKWYIAKIEKYIPQVGR”, the “soluble on expression in E. coli” value is “not soluble”. Regarding “MAKAGGITNAVNVGIAVQADWENREFISHISLNVRRLFEFLVQFGKPHSLTYFSVLGFEFN”, the “soluble on expression in E. coli” value is “not soluble”. Regarding “MEVSTVNDVKIYNLSAGKSLPEWMSSRTRRKLEQRNTDVRQRIQLIQDFEMPDVSNTVNITPDGKYVWASGNYKPWLRCYDLNNLSLKFERGLDADVIKLIPLSDDYSKVVILEEERWIEMHAMLGRYFRMRMPCQGRDMALSEESSDLYLVGSKSEVYRFNLEQGCWLTPFESTAPLNCVQVCTEHQLICCGTTNGVVEAWDHRDKSLCGTLDAGSSVNSHIGENQKVAVTSVAFSDPLHIGVGTSTGQILIYDLRARRPLLIKDHNNELPINKLDFIKRDDGDVVASMDSRMMKLWHEEDGSPMAAIENTCPLNDFCRFPNSGMFFFANEAPKMLQYFIPQLGPAPKWCSYLENLTEEMEETETTVYDNYRFVTKKQLDDLGLSGLIGTNVLRAYMHGYFIDARLYNKAQTQMQPFAYEKYKDEKIKSMIADEREESAVKKKVEKLPAVNKALAARLRDEASAANQKAETKKEKKKSKKSDAATSLLADDRFKKLFESEDFEVDETSEQFLKNASIAQKMKAKGPVEVESEGEESEDNDASDSENEASGSDSEPKGSASWMVEENREVDMASDLESASSDEDIDQSLKAKRAKVRAAKKSERNIQKSQKYDERKEAKKIRKEQRQLSKPSKFVLHSIGTGETTRKFVDETVAVRDDADNKDSMALGARKRATARSDRKTKKVNDDDVPFGGREMTFTISKRDKDLRAEAAKTKQAAHAAERKEVSRRPNALVTKGLKKLPGNVNVGKRQNTF”, the “soluble on expression in E. coli” value was “soluble”. Regarding “MSRPESVLQLARKFGEISAAQENDIHKSRLSLKLGGKENLTKPTLILSKSGPPTPIRHVAPTITHTLPNRPNIGGIASLKSEPKMSRPNMFKQMEKVESNTTTTAPPRQLNPNSIKDALLRWIQNRVAGYPNVNVTNFSSSWADGMAFCALIHRFAPNSFDFSKLDPNNRRYNFDLAFKVAEDNGIFPLLEVDDMIMMGDRPDWKCVFTYVQSFYKQFRDHP”, the “soluble on expression in E. coli” value was “not soluble”. The value for “MSLRPTEYIDLHCHLLPGLDDGPQQLAQAVEMARQAVADGIHYVLATPHHLDRRYQNTGLVVERSVAELQAELKRQQIPLTVFAGQEVHLRDDLATALPHLLGIDVGRRYLLLELPHEQVPNYVAQVIFELLQQGTTPVIAHPERNAQIMAQPERLYDLVQQGCLAQLTAGSLVGQFGRAVKSTALELVECGLVQVIASDAHLMARRGFMMRAGYQALARLDSTNPASFAVNARLLLNGDPVVLGEVLRPNQRRKFWLFEGHHHHHH” was “not soluble”; that for “MAHHHHHHMEENNQVEKNKTNQLCFVKMLVNNLVAGSVIGKNGSIITSIENKTGCSLKLSPTNSYFPNTQERVLVLCGKQEQINNALLIILDKIRQITVQSFQDKQNMNTVPKYTCRIVIPKSAASAIIGKGGQQIKQLQDSTGAKIQISSREDGLNERIISIIGPFESISDTAIKVTNSIQNDPNLKDLLNVIYNKDTNMNGRSSLSQNFVNQVPLNGYVVPQQYGVFQHEQYMDVNMMNSLMRHSRDLFNLPCEISIQI” was “not soluble”; that for “MSDSAVVAAAVEPKVPKAKAAKAAKPTKVAKAKAPVAHPPYINMIKEAIKQLKDRKGASKQAILKFISQNYKLGDNVIQINAHLRQALKRGVTSKALVQAAGSGANGRFRVPEKAAAAKKPAAAKKPAAAKKPAAAKKATGEKKAKKPAAAKPKKAATGDKKVKKAKSPKKVAKPAAKKVAKSPAKKAAPKKIAKPAAKKAAKPAAKA” was “soluble”. On to “PREPVVNDEMCDVCEVWTAESLFPCRVCTRVFHDGCLRRMGYIQGDSAAEVTEMAHTETGWSCHYCDNINLLLTEE”, for which the “soluble on expression in E. coli” value is “soluble”.

Consider “MTECLQTKKSNCKNCYKCIRHCPVKSLKFTDGQAHIVRDECVLCGECYVVCPQNAKQIRSDVEKAKQLVLKYDVYASIAPSFVAWFHNKSIHDMEQALIKLGFKGADETAKGAYIVKKQYEKMIEEKKSKIIISSCCHTVNTLIQRHYTGAIQYLADVVSPMLAHAQMLKKEHKGAKVVFIGPCISKKDEAEKYKGYVELVLTFDELDEWLKSENITIESNRGSSKEGRTRSFPVSGGIISSMDKDLGYHYMVVDGMENCINALENIERGEIDNCFIEMSACRGSCINGPPARRKSNNIVGAILAVNKNTGAKDFSVPMPEPEKLKKEFRFEGVHKIMPGGTAIEEILKKMGKTSIEHELNCGSCGYDTCRDKAVAVLNGKADLTMCLPYLKEKAESFSDAIIKNTPNGVIVLNEDLEIQQINNSAKRILNLSPSTDLLGSPVSRILDPIDYILALREGKNCYYKRKYFAEYKKYVDETIIYDKEYHVIIIIMRDVTEEEKIKALKNKQSEAAIEIADKVVEKQMRVVQEIALLLGETAAETKIALTKLKETMEDE”, for which the “soluble on expression in E. coli” value is listed as “not soluble”. Take “GPGSMTQPSAVVAIGGGLRLLAQPAPTPTADGSSQALTDVFLSEYCAPLQRSSHHLHTHVPRYTVPTPASRRYTPRAGDPVLAIIARKVSQHYYYCYIGGSALAYMDALAFDGATKVSRPRLVEGDVVYCYVKPREGSSYVDGVHRSVASEVFDTTGEVEVSCTAAEVGLPPKDWTSGEAVFGPLQGGRVLHLPLVYVRRLLTPMGSSPEKASAQQRKRDHTEGEGSDGDEVPASYLLQLLGRRVPFEVAVGLNGLVWVRGLSSEADATAAARRTVAVSSCISEAQYDVTRAEMEARVEVYFPS”: the “soluble on expression in E. coli” value is reported as “not soluble”. Turning to “MGSDKIHHHHHHMRIAAYENFITKLLMNNKCMDINEIDKYILRTTSNNYNLVKKQLDRTNKLLEERYERYGCLTEEDNVEALKKGYYDLGKIGLTLEEIRKKIAKFQIDKESPMGIQIEKDWNFATFLLQDLLQLENMNLITYSRLLEERLSELSKNKTNKKTYNKPNNKETTIKTNSPTTNSSDIMTIDEICALLHLSKSKIYHMACAHEIPHHKLNPSKKGRLYFFRSEIEEWLRNKRIRTVDEFLLQFEN”, the “soluble on expression in E. coli” value is “not soluble”. With “VTQPSGLKNLLRAAAGALPVVPRTDQLPNRTVTVEELPIDPANVAAYAAVTGLRYGNQVPLTYPFALTFPSVMSLVTGFDFPFAAMGAIHTENHITQYRPIAVTDAVGVRVRAENLREHRRGLLVDLVTNVSVGNDVAWHQVTTFLHQQRTSLSGEPKPPPQKKPKLPPPAAVLRITPAKIRRYAAVGGDHNPIHTNPIAAKLFGFPTVIAHGMFTAAAVLANIEARFPDAVRYSVRFAKPVLLPATAGLYVAEGDGGWDLTLRNMAKGYPHLTATVRGL”, the “soluble on expression in E. coli” value is reported as “not soluble”.
